# Results as given in patent US20170059576.
# System: Immunoglobulin E (IgE), P01854-1
# Conditions: 5'-hexylamine coupled Sulfo-SBED (phenyl azide, biotin); 365 nm photo-crosslinking, Western blot; marginal at highest protein concentration only
# Sequence of Immunoglobulin E (IgE), P01854-1 (P01854 other isoform, or with tags, fused parts or gaps): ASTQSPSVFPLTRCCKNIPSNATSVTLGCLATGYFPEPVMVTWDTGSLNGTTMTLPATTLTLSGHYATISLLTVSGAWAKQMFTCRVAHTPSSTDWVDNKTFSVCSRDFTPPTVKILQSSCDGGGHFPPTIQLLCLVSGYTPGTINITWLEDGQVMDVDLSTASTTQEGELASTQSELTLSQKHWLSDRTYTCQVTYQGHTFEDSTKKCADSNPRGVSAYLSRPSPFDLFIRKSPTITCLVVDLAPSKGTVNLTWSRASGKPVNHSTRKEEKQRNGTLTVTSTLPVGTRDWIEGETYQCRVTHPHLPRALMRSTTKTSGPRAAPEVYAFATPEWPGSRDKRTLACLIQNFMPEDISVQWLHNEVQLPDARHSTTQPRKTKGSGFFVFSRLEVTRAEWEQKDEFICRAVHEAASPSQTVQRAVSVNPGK
sequence,measurement,value
CCAGCTGGCTCACCGTTCGCGCTAGGGCTTTCCGTCG [ABAL-D17.4sc],binding signal (fold lower cross-linking than ABAL-D17.4),17
